T1: Bovine lipoprotein lipase (bovine, UniProt P11151 29-478)
T1 sequence (looked up): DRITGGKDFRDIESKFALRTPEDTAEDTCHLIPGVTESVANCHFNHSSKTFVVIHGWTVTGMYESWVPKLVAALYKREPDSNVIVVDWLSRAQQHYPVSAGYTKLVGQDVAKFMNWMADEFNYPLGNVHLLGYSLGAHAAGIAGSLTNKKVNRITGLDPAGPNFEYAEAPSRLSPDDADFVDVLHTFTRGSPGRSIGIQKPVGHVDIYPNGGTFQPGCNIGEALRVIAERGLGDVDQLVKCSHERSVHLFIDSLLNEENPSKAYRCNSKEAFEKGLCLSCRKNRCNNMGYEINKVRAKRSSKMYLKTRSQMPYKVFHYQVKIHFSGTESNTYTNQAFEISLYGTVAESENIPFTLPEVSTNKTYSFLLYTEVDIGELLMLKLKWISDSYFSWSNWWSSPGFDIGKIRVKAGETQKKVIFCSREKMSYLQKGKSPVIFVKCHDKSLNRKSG

B1: N-terminal domain of human ANGPTL3 (S17-R224), hexamer (domain or fragment, UniProt Q9Y5C1 17-224, looked up)
chain: SRIDQDNSSFDSLSPEPKSRFAMLDDVKILANGLLQLGHGLKDFVHKTKGQINDIFQKLNIFDQSFYDLSLQTSEIKEEEKELRRTTYKLQVKNEEVKNMSLELNSKLESLLEEKILLQQKVKYLEEQLTNLIQNQPETPEHPEVTSLKTFVEKQDNSIKDLLQTVEDQYKQLNQQHSQIKEIENQLRRTSIQEPTEISLSSKPRAPR
notes: N-terminal (coiled-coil) domain of human ANGPTL3, residues S17 to R224; purified protein with tag 26.8 kDa; No TEV cleavage step is described; Same construct as m2; also called ANGPTL3 peak 1; ANGPTL3 hexamer; source: E. coli Bl21 (DE3) RIPL, purified (Ni-NTA, MonoQ anion exchange, SEC; peak 1 pooled); not shown: His6 with TEV cleavage site, N-terminal, kept
B2: N-terminal ANGPTL3 (1 to 224) produced in HEK-293 cells (domain or fragment, human, UniProt Q9Y5C1 17-224, looked up)
chain: B1 chain
modifications: N-linked glycans (sites not given)
notes: signal peptide in the construct; human ANGPTL3 residues 1 to 224, collected from the expression medium; also called ANGPTL3 produced in mammalian cells
B3: N-terminal domain of human ANGPTL3 (S17-R224), trimer (domain or fragment, UniProt Q9Y5C1 17-224, looked up)
chain: B1 chain
notes: N-terminal (coiled-coil) domain of human ANGPTL3, residues S17 to R224; purified protein with tag 26.8 kDa; Same construct as m1; also called ANGPTL3 peak 2; ANGPTL3 trimer; source: E. coli Bl21 (DE3) RIPL, purified (Ni-NTA, MonoQ anion exchange, SEC; peak 2 pooled)
B4: N-terminal domain of human ANGPTL4 (domain or fragment, UniProt Q9BY76 26-163, looked up)
chain: GPVQSKSPRFASWDEMNVLAHGLLQLGQGLREHAERTRSQLSALERRLSACGSACQGTEGSTDLPLAPESRVDPEVLHSLQTQLKAQNSRIQQLFHKVAQQQRHLEKQHLRIQHLQSQFGLLDHKHLDHEVAKPARRK
notes: N-terminal (coiled-coil) domain of human ANGPTL4; monomer 15.4 kDa; also called N-terminal ANGPTL4; ANGPTL4 trimer

Tests used:
[1] = molecular target: T1, Bovine lipoprotein lipase; test: cell-based or functional assay
[2] = molecular target: the molecule itself; test: SEC-MALS; 24-ml S-200 column, 20 mM Tris-HCl pH 8, 150 mM NaCl, 5% glycerol, 0.5 ml/min; separately concentrated SEC peaks reinjected
[3] = molecular target: T1, Bovine lipoprotein lipase; test: enzyme inhibition kinetics (global noncompetitive fit of Michaelis-Menten curves); 10 nM bovine LPL pre-incubated with ANGPTL for 10 min at 22 °C, human VLDL varied, NEFA enzyme-coupled Amplex UltraRed read-out at 37 °C, initial rates; three biological replicates; conditions: both partners purified
[4] = molecular target: the molecule itself; test: SEC; HEK-293-produced N-terminal ANGPTL3; elution compared with E. coli-produced ANGPTL3

| Binder | IC50 of inhibition of LPL activity (10 nM LPL, 200 μg/ml VLDL triglycerides, NEFA/Amplex UltraRed assay) [1] [nM] | stoichiometry N [2] | Ki [3] [nM] | stoichiometry N [4] |
| --- | --- | --- | --- | --- |
| B1 | 14.4 | 6 | 13.7 |  |
| B2 |  |  |  | 3 |
| B3 | 5.8 | 3 | 7.5 |  |
| B4 | 4.8 | 3 | 3.6 |  |

Reference: paper PMC7949051, “Comparison of angiopoietin-like protein 3 and 4 reveals structural and mechanistic similarities” (The Journal of Biological Chemistry, 2021)
